The values below come from patent publication US20190263934A1.

In experiment [1] the target is rFcRn (rat) (UniProt P13599). Put plainly: BLI Octet, pH 6.0, purified antibody. For orientation: In BLI a coated tip is dipped into the sample, and binding shifts an interference pattern.
Target sequence in this assay (P13599 23-298 limits assumed, form in doubt, chain 1 of 2): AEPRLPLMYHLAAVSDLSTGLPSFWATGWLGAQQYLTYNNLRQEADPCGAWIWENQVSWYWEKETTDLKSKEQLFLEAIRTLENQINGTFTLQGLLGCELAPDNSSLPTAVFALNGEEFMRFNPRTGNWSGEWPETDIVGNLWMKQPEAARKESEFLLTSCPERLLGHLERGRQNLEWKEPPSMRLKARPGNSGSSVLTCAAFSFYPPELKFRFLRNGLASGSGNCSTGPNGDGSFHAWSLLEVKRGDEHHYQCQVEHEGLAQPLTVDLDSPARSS
Target sequence in this assay (P07151 21-119 limits assumed, form in doubt, chain 2 of 2, further chain): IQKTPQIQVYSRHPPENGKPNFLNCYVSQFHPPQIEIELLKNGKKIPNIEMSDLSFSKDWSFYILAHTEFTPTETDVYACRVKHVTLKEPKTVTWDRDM
Experiment [2] concerns the target Human CD16a (FcγRIIIa) V158 with C-terminal HPC4 tag (human) (UniProt P08637). Put plainly: SPR Biacore FcγRIIIa. (In general: In SPR one partner is held on a chip, and binding of the other changes the refractive index at the surface.)
The target is the same in experiment [3]. Kind of experiment: SPR Biacore, captured FcγRIIIa-V158.
Experiment [4] addresses biotinylated hFcRn (human) (UniProt P55899). Kind of experiment: SPR Biacore, pH 6.0.
Target sequence in this assay (P55899 24-297 limits assumed, form in doubt, chain 1 of 2): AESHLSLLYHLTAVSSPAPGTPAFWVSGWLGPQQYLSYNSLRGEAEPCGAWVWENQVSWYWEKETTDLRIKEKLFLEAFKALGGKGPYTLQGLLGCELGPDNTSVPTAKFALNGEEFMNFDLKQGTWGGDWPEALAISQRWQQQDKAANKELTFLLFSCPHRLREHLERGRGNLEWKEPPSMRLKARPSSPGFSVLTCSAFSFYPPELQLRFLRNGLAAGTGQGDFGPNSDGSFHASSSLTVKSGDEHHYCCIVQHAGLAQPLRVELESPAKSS
Target sequence in this assay (P61769 21-119 limits assumed, form in doubt, chain 2 of 2, further chain): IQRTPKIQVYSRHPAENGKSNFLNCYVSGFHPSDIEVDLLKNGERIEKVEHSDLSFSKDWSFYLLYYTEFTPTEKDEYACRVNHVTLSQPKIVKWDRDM
Experiment [5] has the same target. Put plainly: SPR Biacore, pH 7.4, 1000 nM antibody.
Target sequence in this assay (P55899 24-297 limits assumed, form in doubt, chain 1 of 2): as the sequence (P55899 24-297 limits assumed, form in doubt, chain 1 of 2) above
Target sequence in this assay (P61769 21-119 limits assumed, form in doubt, chain 2 of 2, further chain): as the sequence (P61769 21-119 limits assumed, form in doubt, chain 2 of 2, further chain) above
Experiment [6] has as its target rFcRn (rat) (UniProt P13599). Put plainly: SPR Biacore, pH 7.4, 1000 nM antibody.
Target sequence in this assay (P13599 23-298 limits assumed, form in doubt, chain 1 of 2): as the sequence (P13599 23-298 limits assumed, form in doubt, chain 1 of 2) above
Target sequence in this assay (P07151 21-119 limits assumed, form in doubt, chain 2 of 2, further chain): as the sequence (P07151 21-119 limits assumed, form in doubt, chain 2 of 2, further chain) above
Experiment [7] deals with biotinylated hFcRn (human) (UniProt P55899). Kind of experiment: Biacore SPR, pH 6.0, bivalent fit.
Target sequence in this assay (P55899 24-297, form in doubt, chain 1 of 2): as the sequence (P55899 24-297 limits assumed, form in doubt, chain 1 of 2) above
Target sequence in this assay (P61769 21-119, form in doubt, chain 2 of 2, further chain): as the sequence (P61769 21-119 limits assumed, form in doubt, chain 2 of 2, further chain) above
Experiment [8] deals with rFcRn (rat) (UniProt P13599). Kind of experiment: Biacore SPR, pH 6.0, bivalent fit.
Target sequence in this assay (P13599 23-298, form in doubt, chain 1 of 2): as the sequence (P13599 23-298 limits assumed, form in doubt, chain 1 of 2) above
Target sequence in this assay (P07151 21-119, form in doubt, chain 2 of 2, further chain): as the sequence (P07151 21-119 limits assumed, form in doubt, chain 2 of 2, further chain) above
Experiment [9] addresses biotinylated hFcRn (human) (UniProt P55899). Put plainly: SPR Biacore, pH 7.4.
Target sequence in this assay (P55899 24-297 limits assumed, form in doubt, chain 1 of 2): as the sequence (P55899 24-297 limits assumed, form in doubt, chain 1 of 2) above
Target sequence in this assay (P61769 21-119 limits assumed, form in doubt, chain 2 of 2, further chain): as the sequence (P61769 21-119 limits assumed, form in doubt, chain 2 of 2, further chain) above
The target of experiment [10] is rFcRn (rat) (UniProt P13599). Put plainly: SPR Biacore, pH 7.4.
Target sequence in this assay (P13599 23-298 limits assumed, form in doubt, chain 1 of 2): as the sequence (P13599 23-298 limits assumed, form in doubt, chain 1 of 2) above
Target sequence in this assay (P07151 21-119 limits assumed, form in doubt, chain 2 of 2, further chain): as the sequence (P07151 21-119 limits assumed, form in doubt, chain 2 of 2, further chain) above
Experiment [11] addresses biotinylated hFcRn (human) (UniProt P55899). Kind of experiment: SPR Biacore, pH 6.0. This is another data set of the same source.
Target sequence in this assay (P55899 24-297 limits assumed, form in doubt, chain 1 of 2): as the sequence (P55899 24-297 limits assumed, form in doubt, chain 1 of 2) above
Target sequence in this assay (P61769 21-119 limits assumed, form in doubt, chain 2 of 2, further chain): as the sequence (P61769 21-119 limits assumed, form in doubt, chain 2 of 2, further chain) above
The target in experiment [12] is rFcRn (rat) (UniProt P13599). Kind of experiment: SPR Biacore, pH 6.0.
Target sequence in this assay (P13599 23-298 limits assumed, form in doubt, chain 1 of 2): as the sequence (P13599 23-298 limits assumed, form in doubt, chain 1 of 2) above
Target sequence in this assay (P07151 21-119 limits assumed, form in doubt, chain 2 of 2, further chain): as the sequence (P07151 21-119 limits assumed, form in doubt, chain 2 of 2, further chain) above
The target of experiment [13] is rFcRn (rat) (UniProt P13599). Kind of experiment: BLI Octet screen, pH 6.0.
Target sequence in this assay (P13599 23-298 limits assumed, form in doubt, chain 1 of 2): as the sequence (P13599 23-298 limits assumed, form in doubt, chain 1 of 2) above
Target sequence in this assay (P07151 21-119 limits assumed, form in doubt, chain 2 of 2, further chain): as the sequence (P07151 21-119 limits assumed, form in doubt, chain 2 of 2, further chain) above

Sequence of Human CD16a (FcγRIIIa) V158 with C-terminal HPC4 tag (human) (P08637 17-208 F176V): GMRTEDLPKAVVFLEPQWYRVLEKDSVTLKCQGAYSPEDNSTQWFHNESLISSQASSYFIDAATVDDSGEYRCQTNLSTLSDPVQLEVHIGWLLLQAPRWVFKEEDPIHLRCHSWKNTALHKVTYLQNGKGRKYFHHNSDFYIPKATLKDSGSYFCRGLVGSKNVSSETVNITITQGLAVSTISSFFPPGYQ

Consider mAb1 N434F (antibody), for which the off-rate (koff) (in general, a measure of how fast the partners let go of each other) with rFcRn (rat) [1] was 0.00118 s⁻¹; in [7] it was 0.05 s⁻¹; in the experiment with rFcRn (rat) [8], 0.0034 s⁻¹; in experiment [11], 0.05 s⁻¹; in the experiment with rFcRn (rat) [12], 0.00336 s⁻¹. For the same substance, the % enhanced binding vs WT in [2] was 16 to 40%. Further, in [3], the FcγRIIIa V158 Affinity Fold Change (relative to WT) was determined as 1.16 fold. In addition, the kon – broadly, the second-order rate constant of association – is 350000 M⁻¹ s⁻¹ in experiment [4]; 350000 M⁻¹ s⁻¹ in [7]; 126000 M⁻¹ s⁻¹ in the experiment with rFcRn (rat) [8]; 354000 M⁻¹ s⁻¹ in experiment [11]; 126000 M⁻¹ s⁻¹ with rFcRn (rat) [12]. Besides, the Steady State RU in experiment [5] stood at 20.1 RU; in the experiment with rFcRn (rat) [6] it was 54.9 RU; in [9], 22.2 RU; in the experiment with rFcRn (rat) [10], 61.5 RU. Further, the Kd amounted to 165 nM in [7], 26 nM with rFcRn (rat) [8], 165 nM in [11] and 26 nM in the experiment with rFcRn (rat) [12]. The same substance returned a fold slower off-rate vs WT with rFcRn (rat) [13] greater than 2 fold.
With mAb1 N434Y (antibody), the off-rate constant (koff) with rFcRn (rat) [1] amounted to 0.00133 s⁻¹; in experiment [4], 0.05 s⁻¹; in experiment [7] it was 0.05 s⁻¹; with rFcRn (rat) [8] it was 0.0035 s⁻¹; in [11], 0.052 s⁻¹; with rFcRn (rat) [12], 0.00346 s⁻¹. In addition, the % enhanced binding vs WT in experiment [2] lay in the range of 16 to 40%. The FcγRIIIa V158 Affinity Fold Change (relative to WT) in experiment [3] is 1.41 fold. In addition, the kon in experiment [4] was found to be 360000 M⁻¹ s⁻¹; in [7], 360000 M⁻¹ s⁻¹; with rFcRn (rat) [8] it was 145000 M⁻¹ s⁻¹; in experiment [11], 359000 M⁻¹ s⁻¹; with rFcRn (rat) [12] it was 145000 M⁻¹ s⁻¹. Also, the Steady State RU in experiment [5] was 22.6 RU; with rFcRn (rat) [6], 47 RU; in experiment [9] it was 25.5 RU; in the experiment with rFcRn (rat) [10] it was 66 RU. Also, the Kd in [7] is 137 nM; in the experiment with rFcRn (rat) [8] it was 23 nM; in experiment [11], 137 nM; in the experiment with rFcRn (rat) [12] it was 23 nM. The fold slower off-rate vs WT in the experiment with rFcRn (rat) [13] is greater than 2 fold.
